Columns and labels:
HeLa Kyoto [1] = assay: solubility in G1/S (NP-40 vs SDS abundance) (log2 ratio); higher = more soluble; settings: cell cycle stage: G1/S
HeLa Kyoto [2] = assay: melting temperature (median over replicates), in situ; higher = more thermally stable
HeLa Kyoto [3] = assay: solubility change mitosis vs G1/S (difference of NP-40 vs SDS log2 ratios) (log2 ratio difference); higher = more soluble in mitosis
HeLa Kyoto [4] = assay: thermal stability score vs G1/S (z-score of summed log2 fold changes over temperatures); higher = more thermally stable than in G1/S
[5] = cell cycle stage: early G1 (4.5 h after nocodazole release)
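Throughout, for melting temperature (median over replicates), in situ: HeLa Kyoto cells synchronized by double thymidine or nocodazole block, proteins quantified by TMT10plex mass spectrometry, three independent biological replicates.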
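Throughout, for solubility change mitosis vs G1/S (difference of NP-40 vs SDS log2 ratios): synchronized HeLa Kyoto cells (double thymidine block for G1/S, nocodazole release for mitosis), protein amounts in NP-40 versus SDS lysates quantified by mass spectrometry, three biological replicates.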
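Throughout, for solubility in G1/S (NP-40 vs SDS abundance): HeLa Kyoto cells arrested at G1/S by double thymidine block, proteins quantified by TMT10plex mass spectrometry in mild NP-40 versus SDS extracts, three biological replicates.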
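Throughout, for thermal stability score vs G1/S (z-score of summed log2 fold changes over temperatures): synchronized HeLa Kyoto cells, proteins quantified by TMT10plex mass spectrometry, three biological replicates, mitosis taken 0.5 h after nocodazole release, G1/S directly after double thymidine block.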

Sequence of SLC7A2 (chain, as listed by the source): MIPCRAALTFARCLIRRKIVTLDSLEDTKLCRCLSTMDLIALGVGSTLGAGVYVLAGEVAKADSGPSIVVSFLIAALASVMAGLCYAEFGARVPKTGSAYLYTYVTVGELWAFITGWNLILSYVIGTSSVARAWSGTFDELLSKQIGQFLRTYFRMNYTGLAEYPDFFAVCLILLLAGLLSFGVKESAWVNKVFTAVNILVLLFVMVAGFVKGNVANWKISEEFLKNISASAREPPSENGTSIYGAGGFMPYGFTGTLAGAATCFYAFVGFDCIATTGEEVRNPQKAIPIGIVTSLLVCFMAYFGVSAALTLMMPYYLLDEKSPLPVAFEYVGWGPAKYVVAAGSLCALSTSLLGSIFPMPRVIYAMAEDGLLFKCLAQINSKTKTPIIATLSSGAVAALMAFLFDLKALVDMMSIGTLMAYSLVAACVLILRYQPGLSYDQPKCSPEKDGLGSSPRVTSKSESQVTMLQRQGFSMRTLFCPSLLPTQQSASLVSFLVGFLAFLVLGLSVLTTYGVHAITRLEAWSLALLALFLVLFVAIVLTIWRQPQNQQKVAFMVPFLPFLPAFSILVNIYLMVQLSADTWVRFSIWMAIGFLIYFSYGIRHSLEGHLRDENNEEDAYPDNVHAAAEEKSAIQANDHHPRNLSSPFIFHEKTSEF

Substance	solubility in G1/S (log2) (HeLa Kyoto [1])	melting temperature (HeLa Kyoto [2]; cell cycle stage: G1/S) [°C]	melting temperature (HeLa Kyoto [2]; cell cycle stage: mitosis) [°C]	solubility change mitosis (log2) (HeLa Kyoto [3])	thermal stability score (HeLa Kyoto [4]; [5])	thermal stability score (HeLa Kyoto [4]; cell cycle stage: mitosis)
MAANMYRVGDYVYFENSSSNPYLIRRIEELNKTANGNVEAKVVCFYRRRDISSTLIALADKHATLSVCYKAGPGADNGEEGEIEEEMENPEMVDLPEKLKHQLRHRELFLSRQLESLPATHIRGKCSVTLLNETESLKSYLEREDFFFYSLVYDPQQKTLLADKGEIRVGNRYQADITDLLKEGEEDGRDQSRLETQVWEAHNPLTDKQIDQFLVVARSVGTFARALDCSSSVRQPSLHMSAAAASRDITLFHAMDTLHKNIYDISKAISALVPQGGPVLCRDEMEEWSASEANLFEEALEKYGKDFTDIQQDFLPWKSLTSIIEYYYMWKTTDRYVQQKRLKAAEAESKLKQVYIPNYNKPNPNQISVNNVKAGVVNGTGAPGQSPGAGRACESCYTTQSYQWYSWGPPNMQCRLCASCWTYWKKYGGLKMPTRLDGERPGPNRSNMSPHGLPARSSGSPKFAMKTRQAFYLHTTKLTRIARRLCREILRPWHAARHPYLPINSAAIKAECTARLPEASQSPLVLKQAVRKPLEAVLRYLETHPRPPKPDPVKSVSSVLSSLTPAKVAPVINNGSPTILGKRSYEQHNGVDGNMKKRLLMPSRGLANHGQARHMGPSRNLLLNGKSYPTKVRLIRGGSLPPVKRRRMNWIDAPDDVFYMATEETRKIRKLLSSSETKRAARRPYKPIALRQSQALPPRPPPPAPVNDEPIVIED [MTA1]	-0.0863	49.1	50.3	-0.00553	1.08	2.79
MASKCPKCDKTVYFAEKVSSLGKDWHKFCLKCERCSKTLTPGGHAEHDGKPFCHKPCYATLFGPKGVNIGGAGSYIYEKPLAEGPQVTGPIEVPAARAEERKASGPPKGPSRASSVTTFTGEPNTCPRCSKKVYFAEKVTSLGKDWHRPCLRCERCGKTLTPGGHAEHDGQPYCHKPCYGILFGPKGVNTGAVGSYIYDRDPEGKVQP [CRIP2]	0.608	55	53.2	0.0882	-3.58	-3.7
SLC7A2	0.0385	55.5	57	-0.149	-3.64	-8.3
MERPPGLRPGAGGPWEMRERLGTGGFGNVCLYQHRELDLKIAIKSCRLELSTKNRERWCHEIQIMKKLNHANVVKACDVPEELNILIHDVPLLAMEYCSGGDLRKLLNKPENCCGLKESQILSLLSDIGSGIRYLHENKIIHRDLKPENIVLQDVGGKIIHKIIDLGYAKDVDQGSLCTSFVGTLQYLAPELFENKPYTATVDYWSFGTMVFECIAGYRPFLHHLQPFTWHEKIKKKDPKCIFACEEMSGEVRFSSHLPQPNSLCSLVVEPMENWLQLMLNWDPQQRGGPVDLTLKQPRCFVLMDHILNLKIVHILNMTSAKIISFLLPPDESLHSLQSRIERETGINTGSQELLSETGISLDPRKPASQCVLDGVRGCDSYMVYLFDKSKTVYEGPFASRSLSDCVNYIVQDSKIQLPIIQLRKVWAEAVHYVSGLKEDYSRLFQGQRAAMLSLLRYNANLTKMKNTLISASQQLKAKLEFFHKSIQLDLERYSEQMTYGISSEKMLKAWKEMEEKAIHYAEVGVIGYLEDQIMSLHAEIMELQKSPYGRRQGDLMESLEQRAIDLYKQLKHRPSDHSYSDSTEMVKIIVHTVQSQDRVLKELFGHLSKLLGCKQKIIDLLPKVEVALSNIKEADNTVMFMQGKRQKEIWHLLKIACTQSSARSLVGSSLEGAVTPQTSAWLPPTSAEHDHSLSCVVTPQDGETSAQMIEENLNCLGHLSTIIHEANEEQGNSMMNLDWSWLTE [CHUK]	0.0423	48.7	49.1	-0.139	0.418	1.15
MTFQASHRSAWGKSRKKNWQYEGPTQKLFLKRNNVSAPDGPSDPSISVSSEQSGAQQPPALQVERIVDKRKNKKGKTEYLVRWKGYDSEDDTWEPEQHLVNCEEYIHDFNRRHTEKQKESTLTRTNRTSPNNARKQISRSTNSNFSKTSPKALVIGKDHESKNSQLFAASQKFRKNTAPSLSSRKNMDLAKSGIKILVPKSPVKSRTAVDGFQSESPEKLDPVEQGQEDTVAPEVAAEKPVGALLGPGAERARMGSRPRIHPLVPQVPGPVTAAMATGLAVNGKGTSPFMDALTANGTTNIQTSVTGVTASKRKFIDDRRDQPFDKRLRFSVRQTESAYRYRDIVVRKQDGFTHILLSTKSSENNSLNPEVMREVQSALSTAAADDSKLVLLSAVGSVFCCGLDFIYFIRRLTDDRKRESTKMAEAIRNFVNTFIQFKKPIIVAVNGPAIGLGASILPLCDVVWANEKAWFQTPYTTFGQSPDGCSTVMFPKIMGGASANEMLLSGRKLTAQEACGKGLVSQVFWPGTFTQEVMVRIKELASCNPVVLEESKALVRCNMKMELEQANERECEVLKKIWGSAQGMDSMLKYLQRKIDEF [CDYL]	-0.609	51.4	51	0.533	2.51	0.875

Reference: the supplement of paper PMC5998384
